From US20070243558A1, “Peptide Stabilization” (priority 2004, published 2007)
Read-outs that look alike come from different tables or passages of the source. Values belong to the molecule of their own block, whether it stands above or below them.

Legend:
[1] = Stability of U-INTP in samples after three days at room temperature, without and with stabilizer (Table 4); format: physicochemical; parameters: U-INTP test result, Immed.: unit not given beside the values; conditions: for U-INTP test result, 3 days + stabilizer / U-INTP, 3 days + stabilizer, in % of immed.-sample: with stabilizer
Excerpt: Two parallel tests were done for each sample.

[2] = Stability of the same analytes in serum samples, with and without 5% DMSO (Table 3); format: physicochemical
Excerpt: Table 3 is a test corresponding to the test of Table 2, but where the ten samples to be tested were serum samples rather than plasma samples.

[3] = Storage stability of analytes in serum sample without stabilizer (background statement); format: physicochemical; conditions: room temperature
Excerpt: In connection with said determinations and sample handling the poor stability of gastrin-17 has proven to be a problem, due to the fact that it decomposes rapidly in the sample. […] This is in contrast to pepsinogen I and II, which retain their activity at room temperature for many days, and Helicobacter pylori antibodies, which survive for at least three days under refrigerator conditions.

[4] = room temperature; for effect of adding DMSO on the activity: EDTA-plasma samples, day 0 and day 3
Description: The effect of adding DMSO was tested on pepsinogen I, pepsinogen II, Helicobacter pylori antibodies and gastrin-17. The results are indicated at day 0 and day 3.

[5] = Sample 1, three days at room temperature
[6] = Sample 1 parall., three days at room temperature
[7] = Sample 2, three days at room temperature
[8] = Sample 2 parall., three days at room temperature
[9] = EDTA-plasma sample PL466s, 0% DMSO, day 0
[10] = EDTA-plasma sample PL466s, 0% DMSO, day 3
[11] = EDTA-plasma sample PL466s, 5% DMSO, day 0
[12] = EDTA-plasma sample PL466s, 5% DMSO, day 3
[13] = EDTA-plasma sample PL467s, 0% DMSO, day 0
[14] = EDTA-plasma sample PL467s, 0% DMSO, day 3
[15] = EDTA-plasma sample PL467s, 5% DMSO, day 0
[16] = EDTA-plasma sample PL467s, 5% DMSO, day 3
[17] = EDTA-plasma sample PL471s, 0% DMSO, day 0
[18] = EDTA-plasma sample PL471s, 0% DMSO, day 3
[19] = EDTA-plasma sample PL471s, 5% DMSO, day 0
[20] = EDTA-plasma sample PL471s, 5% DMSO, day 3
[21] = EDTA-plasma sample PL472s, 0% DMSO, day 0
[22] = EDTA-plasma sample PL472s, 0% DMSO, day 3
[23] = EDTA-plasma sample PL472s, 5% DMSO, day 0
[24] = EDTA-plasma sample PL472s, 5% DMSO, day 3
[25] = EDTA-plasma sample PL473s, 0% DMSO, day 0
[26] = EDTA-plasma sample PL473s, 0% DMSO, day 3
[27] = EDTA-plasma sample PL473s, 5% DMSO, day 0
[28] = EDTA-plasma sample PL473s, 5% DMSO, day 3

- U-INTP test result, Immed. ([1]; Sample 1, immediately): 200
- U-INTP test result, 3 days no stabilizer [1, 5]: 189
- U-INTP, 3 days no stabilizer, in % of immed.-sample [1, 5]: 94.5%
- U-INTP test result, 3 days + stabilizer [1, 5]: 202
- U-INTP, 3 days + stabilizer, in % of immed.-sample [1, 5]: 101.0%
- U-INTP test result, Immed. ([1]; Sample 1 parall., immediately): 199
- U-INTP test result, 3 days no stabilizer [1, 6]: 187
- U-INTP, 3 days no stabilizer, in % of immed.-sample [1, 6]: 94.0%
- U-INTP test result, 3 days + stabilizer [1, 6]: 209
- U-INTP, 3 days + stabilizer, in % of immed.-sample [1, 6]: 105.0%
- U-INTP test result, Immed. ([1]; Sample 2, immediately): 113
- U-INTP test result, 3 days no stabilizer [1, 7]: 115
- U-INTP, 3 days no stabilizer, in % of immed.-sample [1, 7]: 101.8%
- U-INTP test result, 3 days + stabilizer [1, 7]: 144
- U-INTP, 3 days + stabilizer, in % of immed.-sample [1, 7]: 127.4%
- U-INTP test result, Immed. ([1]; Sample 2 parall., immediately): 118
- U-INTP test result, 3 days no stabilizer [1, 8]: 114
- U-INTP, 3 days no stabilizer, in % of immed.-sample [1, 8]: 96.6%
- U-INTP test result, 3 days + stabilizer [1, 8]: 136
- U-INTP, 3 days + stabilizer, in % of immed.-sample [1, 8]: 115.3%
Molecule: collagen I aminoterminal telopeptide [U-INTP]

Molecule: pepsinogen I [PGI]
- PGI concentration ([2]; serum sample PL411s, 0% DMSO): 283.6 µg/L
- PGI concentration ([2]; serum sample PL411s, 5% DMSO): 296.0 µg/L
- PGI concentration ([2]; serum sample PL420b, 0% DMSO): 75.5 µg/L
- PGI concentration ([2]; serum sample PL420b, 5% DMSO): 79.3 µg/L
- PGI concentration ([2]; serum sample PL426s, 0% DMSO): 49.7 µg/L
- PGI concentration ([2]; serum sample PL426s, 5% DMSO): 50.6 µg/L
- PGI concentration ([2]; serum sample PL438s, 0% DMSO): 158.6 µg/L
- PGI concentration ([2]; serum sample PL438s, 5% DMSO): 156.0 µg/L
- PGI concentration ([2]; serum sample PL439s, 0% DMSO): 67.6 µg/L
- PGI concentration ([2]; serum sample PL439s, 5% DMSO): 68.5 µg/L
- PGI concentration ([2]; serum sample PL447b, 0% DMSO): 6.0 µg/L
- PGI concentration ([2]; serum sample PL447b, 5% DMSO): 6.0 µg/L
- PGI concentration ([2]; serum sample PL454s, 0% DMSO): 100.6 µg/L
- PGI concentration ([2]; serum sample PL454s, 5% DMSO): 102.3 µg/L
- PGI concentration ([2]; serum sample PL455b, 0% DMSO): 79.2 µg/L
- PGI concentration ([2]; serum sample PL455b, 5% DMSO): 81.5 µg/L
- PGI concentration ([2]; serum sample PL457b, 0% DMSO): 101.1 µg/L
- PGI concentration ([2]; serum sample PL457b, 5% DMSO): 106.9 µg/L
- PGI concentration ([2]; serum sample PL458s, 0% DMSO): 77.1 µg/L
- PGI concentration ([2]; serum sample PL458s, 5% DMSO): 80.1 µg/L
- time for which activity is retained [3]: many days
- PGI concentration [4, 9]: 58.8 µg/L
- PGI concentration [4, 10]: 76.9 µg/L
- PGI concentration [4, 11]: 60.5 µg/L
- PGI concentration [4, 12]: 77.4 µg/L
- PGI concentration [4, 13]: 73.3 µg/L
- PGI concentration [4, 14]: 94.9 µg/L
- PGI concentration [4, 15]: 76.8 µg/L
- PGI concentration [4, 16]: 98.8 µg/L
- PGI concentration [4, 17]: 60.6 µg/L
- PGI concentration [4, 18]: 85.5 µg/L
- PGI concentration [4, 19]: 67.6 µg/L
- PGI concentration [4, 20]: 84.3 µg/L
- PGI concentration [4, 21]: 110.3 µg/L
- PGI concentration [4, 22]: 134.8 µg/L
- PGI concentration [4, 23]: 109.4 µg/L
- PGI concentration [4, 24]: 135.6 µg/L
- PGI concentration [4, 25]: 94.9 µg/L
- PGI concentration [4, 26]: 115.4 µg/L
- PGI concentration [4, 27]: 94.7 µg/L
- PGI concentration [4, 28]: 102.1 µg/L
- effect of adding DMSO on the activity [4]: essentially no effect

B1: pepsinogen II (protein, UniProt P20142 17-388, looked up)
pro-form: AVVKVPLKKFKSIRETMKEKGLLGEFLRTHKYDPAWKYRFGDLSVTYEPMAYMDAAYFGEISIGTPPQNFLVLFDTGSSNLWVPSVYCQSQACTSHSRFNPSESSTYSTNGQTFSLQYGSGSLTGFFGYDTLTVQSIQVPNQEFGLSENEPGTNFVYAQFDGIMGLAYPALSVDEATTAMQGMVQEGALTSPVFSVYLSNQQGSSGGAVVFGGVDSSLYTGQIYWAPVTQELYWQIGIEEFLIGGQASGWCSEGCQAIVDTGTSLLTVPQQYMSALLQATGAQEDEYGQFLVNCNSIQNLPSLTFIINGVEFPLPPSSYILSNNGYCTVGVEPTYLSSQNGQPLWILGDVFLRSYYSVYDLGNNRVGFATAA
modifications: pro-form
notes: analyte determined from serum or plasma sample
- PGII concentration ([2]; serum sample PL411s, 0% DMSO): 32.8 µg/L
- PGII concentration ([2]; serum sample PL411s, 5% DMSO): 33.6 µg/L
- PGII concentration ([2]; serum sample PL420b, 0% DMSO): 6.3 µg/L
- PGII concentration ([2]; serum sample PL420b, 5% DMSO): 5.7 µg/L
- PGII concentration ([2]; serum sample PL426s, 0% DMSO): 3.5 µg/L
- PGII concentration ([2]; serum sample PL426s, 5% DMSO): 3.1 µg/L
- PGII concentration ([2]; serum sample PL438s, 0% DMSO): 13.6 µg/L
- PGII concentration ([2]; serum sample PL438s, 5% DMSO): 12.8 µg/L
- PGII concentration ([2]; serum sample PL439s, 0% DMSO): 5.7 µg/L
- PGII concentration ([2]; serum sample PL439s, 5% DMSO): 5.2 µg/L
- PGII concentration ([2]; serum sample PL447b, 0% DMSO): 4.9 µg/L
- PGII concentration ([2]; serum sample PL447b, 5% DMSO): 4.6 µg/L
- PGII concentration ([2]; serum sample PL454s, 0% DMSO): 7.7 µg/L
- PGII concentration ([2]; serum sample PL454s, 5% DMSO): 7.3 µg/L
- PGII concentration ([2]; serum sample PL455b, 0% DMSO): 7.3 µg/L
- PGII concentration ([2]; serum sample PL455b, 5% DMSO): 7.1 µg/L
- PGII concentration ([2]; serum sample PL457b, 0% DMSO): 7.1 µg/L
- PGII concentration ([2]; serum sample PL457b, 5% DMSO): 6 µg/L
- PGII concentration ([2]; serum sample PL458s, 0% DMSO): 6.7 µg/L
- PGII concentration ([2]; serum sample PL458s, 5% DMSO): 5.8 µg/L
- time for which activity is retained [3]: many days
- PGII concentration [4, 9]: 6.8 µg/L
- PGII concentration [4, 10]: 8.3 µg/L
- PGII concentration [4, 11]: 6.6 µg/L
- PGII concentration [4, 12]: 7.7 µg/L
- PGII concentration [4, 13]: 5 µg/L
- PGII concentration [4, 14]: 6.4 µg/L
- PGII concentration [4, 15]: 4.9 µg/L
- PGII concentration [4, 16]: 6.2 µg/L
- PGII concentration [4, 17]: 4.9 µg/L
- PGII concentration [4, 18]: 5.8 µg/L
- PGII concentration [4, 19]: 4.8 µg/L
- PGII concentration [4, 20]: 5.3 µg/L
- PGII concentration [4, 21]: 5.7 µg/L
- PGII concentration [4, 22]: 7.3 µg/L
- PGII concentration [4, 23]: 5.7 µg/L
- PGII concentration [4, 24]: 6.9 µg/L
- PGII concentration [4, 25]: 6.4 µg/L
- PGII concentration [4, 26]: 8.5 µg/L
- PGII concentration [4, 27]: 6.4 µg/L
- PGII concentration [4, 28]: 7.9 µg/L
- effect of adding DMSO on the activity [4]: essentially no effect
